Assay results reported in PMC4048344 (Channels, 2014).
Values belong to the molecule of their own block, whether it stands above or below them.

Experiments:
[1] = biological target: MBP-tagged SK2-ARK C-terminus (aa 368-553) (chicken); experiment: pull-down
[2] = biological target: chicken SK2-ARK splice variant, full length, expressed in Xenopus oocytes (chicken); experiment: co-IP
[3] = biological target: chicken SK2 (isoform lacking the ARK insert), full length, expressed in Xenopus oocytes (chicken, UniProt Q9PTS9 1-553); experiment: co-IP
[4] = biological target: MBP-tagged SK2 C-terminus (aa 368-553) (chicken, UniProt Q9PTS9 368-553); experiment: pull-down

Molecule: HA-tagged α9/10-nicotinic acetylcholine receptor (chicken α9 and α10-HA subunits) (from UniProt Q9PTS8 28-484; Q9I8C7 27-452) (complex)
co-precipitated α9/10-nAChRs, percent of that with SK2 [2]: 173 % of SK2

B1: HA-tagged α9/10-nicotinic acetylcholine receptor (chicken α9 and α10-HA subunits) (complex)
chain 1: AKGKYAQMLFNELFEDYSNALRPVEDTDKVLNVTLQITLSQIKDMDERNQILTAYLWIRQSWYDAYLKWDKDKYDGLDSIRIPSNLVWRPDIVLYNKADDDFSEPVNTNVVLRYDGKITWDAPAITKSSCVVDVSYFPFDSQQCNLTFGSWTYNGNQVDIINSLDSGDLSDFVEDVEWEIHGMPAVKNVITYGCCSEPYPDVTFTLILKRKSSFYIFNLLLPCILISFLAPLGFYLPADSGEKVSLGVTVLLALTVFQLMVAEIMPPSENVPLIGKYYIATMTMITASTALTIIIMNVHHCGSEAKPVPQWARVVILDYMSKIFFVYDVGENCTSPRREKEQEHRLEGGDMCRGGDGKSHLSSRNDDSDLKENLNGNWNKSFGVHGENVRENVNCCSCYKMLIKNIEYIANCVRDHKANRAKGIEWKKVAKVMDRFFMWIFFIMVFFMSVLIIGKAA
chain 2: AQGRLAHKLLHDLFANYSSALRPAEDTERALNVTLQVTLSQIIDMDERNQVLTSYLWVRQAWLDAHLAWDKDAYGGIDSIRIPSSYVWRPDIVLYNNADERFGGSMETNVVLRSDGHIMWDSPAITKSSCKVDVSYFPFDGQQCRLTFGSWTYNGNQIDLRNLLDTGDLTDFVENVEWEVLGMPATRNVVTYGCCSEPYPDVTYTLLLRRRASFYIFNLLLPCVMISFLAPLGFYLPADSGEKVSLGVTVLLALTVFQLLVAESMPPSESVPLIGKYYIATMTMITASTALTIFIMNIHHCGPGARPVPPWARRLILHHLARALCVCEVGESCGRPQREGTGGMGPRDPPGEGVEPGLCPRSRCLCHHHAVLSSVGYIAGVFRRHRTAQRRAAEWKKVAKVMDRFFMWVFFLMVFLMSVLVIGKAA
fold change of co-precipitation after BAPTA-AM [3]: 2 fold

Results, then the molecule that gave them:

bound α-actinin-1, percent of that bound to SK2 [1]: 81.2 % of SK2 | fold increase in binding with 1 mM CaCl2 against 5 mM BAPTA [1]: 6.8 fold
Molecule: GST-tagged full-length human α-actinin-1 (from UniProt P12814-3 1-914) (natural protein)

co-precipitated CaM with 5 mM BAPTA, percent of that with SK2 [1]: 142 % of SK2
Molecule: calmodulin, purified from bovine brain (from UniProt P62157 1-149) (natural protein)

fold increase in binding with 1 mM CaCl2 against 5 mM BAPTA [4]: 3.2 fold
B2: GST-tagged full-length human α-actinin-1 (natural protein, UniProt P12814-3 1-914, looked up)
chain: MDHYDSQQTNDYMQPEEDWDRDLLLDPAWEKQQRKTFTAWCNSHLRKAGTQIENIEEDFRDGLKLMLLLEVISGERLAKPERGKMRVHKISNVNKALDFIASKGVKLVSIGAEEIVDGNVKMTLGMIWTIILRFAIQDISVEETSAKEGLLLWCQRKTAPYKNVNIQNFHISWKDGLGFCALIHRHRPELIDYGKLRKDDPLTNLNTAFDVAEKYLDIPKMLDAEDIVGTARPDEKAIMTYVSSFYHAFSGAQKAETAANRICKVLAVNQENEQLMEDYEKLASDLLEWIRRTIPWLENRVPENTMHAMQQKLEDFRDYRRLHKPPKVQEKCQLEINFNTLQTKLRLSNRPAFMPSEGRMVSDINNAWGCLEQVEKGYEEWLLNEIRRLERLDHLAEKFRQKASIHEAWTDGKEAMLRQKDYETATLSEIKALLKKHEAFESDLAAHQDRVEQIAAIAQELNELDYYDSPSVNARCQKICDQWDNLGALTQKRREALERTEKLLETIDQLYLEYAKRAAPFNNWMEGAMEDLQDTFIVHTIEEIQGLTTAHEQFKATLPDADKERLAILGIHNEVSKIVQTYHVNMAGTNPYTTITPQEINGKWDHVRQLVPRRDQALTEEHARQQHNERLRKQFGAQANVIGPWIQTKMEEIGRISIEMHGTLEDQLSHLRQYEKSIVNYKPKIDQLEGDHQLIQEALIFDNKHTNYTMEHIRVGWEQLLTTIARTINEVENQILTRDAKGISQEQMNEFRASFNHFDRDHSGTLGPEEFKACLISLGYDIGNDPQKKTGMMDTDDFRACLISMGYNMGEAEFARIMSIVDPNRLGVVTFQAFIDFMSRETADTDTADQVMASFKILAGDKNYITMDELRRELPPDQAEYCIARMAPYTGPDSVPGALDYMSFSTALYGESDL
